According to PMC3581732 (Molecular microbiology, 2013):

Biological target: the molecule itself
Assay: cross-linking

B1: TolC Y362F/R367E (YFRE^His), leaky/open mutant with a C-terminal 6His-tag (natural protein)
chain: ENLMQVYQQARLSNPELRKSAADRDAAFEKINEARSPLLPQLGLGADYTYSNGYRDANGINSNATSASLQLTQSIFDMSKWRALTLQEKAAGIQDVTYQTDQQTLILNTATAYFNVLNAIDVLSYTQAQKEAIYRQLDQTTQRFNVGLVAITDVQNARAQYDTVLANEVTARNNLDNAVEQLRQITGNYYPELAALNVENFKTDKPQPVNALLKEAEKRNLSLLQARLSQDLAREQIRQAQDGHLPTLDLTASTGISDTSYSGSKTRGAAGTQYDDSNMGQNKVGLSFSLPIYQGGMVNSQVKQAQYNFVGASEQLESAHRSVVQTVRSSFNNINASISSINAYKQAVVSAQSSLDAMEAGFSVGTETIVDVLDATTTLYNAKQELANARYNYLINQLNIKSALGTLNEQDLLALNNALSKPVSTNPENVAPQTPEQNAIADGYAPDSPAPVVQQTSARTTTSNGHNPFRN
  stoichiometry N: 3
